Several values for one entry are separate records, joined by “and”; a condition that tells them apart may be missing. Identical values can stand only once.
Columns and labels:
Assay type in all cases: cell-based, human
[1] = tested on: stage 2 early-OPCs; assay: HD-DoE 8-factor model for stage 3 (version 1) on stage 2 early-OPCs; conditions: optimized for maximum expression of OLIG1 at 256; positive impact
Protocol: To further differentiate the cells to an oligodendrocyte progenitor identity, additional HD-DoE experiments were performed on the cells that were cultured in stage 1 and stage 2 differentiation media. After 3 days, gene expression of cells in different combinatorial conditions were investigated. At this time, we focused on maximal expression of signature oligodendrocyte progenitor genes such as SOX10, OLIG1 and PDGFRa (Goldman and Kuypers (2015) Development 142:3983-95; Marques et al. (2016) Science 352:1326-1329). In one 8-factor model, individual and combinatorial effects of LDN193189, SUN 11602, Activin A, Biotin, TTNPB, Isoproterenol, linoleic acid and T3+T4 were tested.
The same model was also optimized for maximum expression of PDGFRa at 3510.9. Two factor specifically, TTNPB and Linoleic acid determined the expression level of PDGFRa with factor contribution of 71.6 and 22.1, respectively (FIG. 17). […] The model was also optimized for highest expression of SOX10 at 18.8. In this optimization, TTNPB was the only input that could elevate the expression level of the selected gene (FIG. 18).
Dynamic profile analysis was utilized to explore combination sets that can optimize expression of all three selected genes. […]

[2] = tested on: stage 2 early-OPCs; assay: HD-DoE 12-factor model for stage 3 (version 1) on stage 2 early-OPCs; conditions: positive
Protocol: In another model, the effects of Activin A and TTNPB along with LDN193189, MHY1485, PDGF-AA, AICAR, FGF2, CHIR99021, DBZ, MK2206, Purmorphamine and T3+T4 were tested on gene profile of differentiating cells. When this model was optimized for maximum expression of SOX10 at 54.7, we observed Activin A again had positive regulatory impact on its expression, with factor contribution of 4.7. Other positive factors included MK2206, with the highest factor contribution at 16.2, MHY1485 at 11.49, CHIR99021 at 9.6, DBZ at 9.3, FGF2 at 3.6 and PDGF-AA, with factor contribution less than 3 (FIG. 20).
In this model, we also investigated the conditions of expression of another important OPC gene, CSPG4 (Goldman and Kuypers (2015) Development 142:3983-95: van Tilborg et al. (2018) Glia 66:221-238).
Dynamic profile analysis was used to better assess the impact of the factors on our selected genes and find the combination set that can optimize their expression (FIG. 22). According to this analysis, even though Activin A has a positive effect on SOX10, it decreases level of PDGFRa and OLIG1. […]

[3] = tested on: OPCs; assay: HD-DoE 8-factor model for stage 4 on OPCs; conditions: optimized for maximal expression of CNP at 1339; positive
Protocol: (§1) To engineer the recipe of stage 4 of differentiation, 48 or 96 different combinations of effectors generated using Design-of-Experiments compression through D-optimality were robotically prepared. The effector combinations were prepared in a basal media and were subsequently added to the cells, which were treated with the stage 1, stage 2 and stage 3 differentiation media as described in the earlier examples to generate OPCs. […] Solutions within the tested space could then be explored to address desirability.

[4] = tested on: OPCs; assay: HD-DoE 12-factor model for stage 4 on OPCs, 6 days in culture; conditions: positive
Protocol: as §1, with “desirability. […] Benarroch (2009) Neurology 72:1779-1785; Shi et al. (2019) Exp Ther Med, 18:1258-1266).” for “desirability.”

Row | Molecule | factor contribution [1] | factor contribution ([2]; optimized for maximum expression of CSPG4 at 38.6) | factor contribution ([2]; optimized for maximum expression of SOX10 at 54.7) | factor contribution [3] | factor contribution ([4]; optimized for CNP at 1790) | factor contribution ([4]; optimized for PLP1 at 3600)
1 | Activin A: an activator of one of the receptors of TGF-b superfamily (protein, UniProt P08476 311-426, looked up) Inhibin beta A chain: GLECDGKVNICCKKQFFVSFKDIGWNDWIIAPSGYHANYCEGECPSHIAGTSGSSLSFHSTVINHYRMRGHSPFANLKSCCVPTKLRPMSMLYYDDGQNIIKKDIQNMIVEECGCS | 50.2 | 9.3 | 4.7 | – | – | –
2 | NT-3: TrkC agonist (protein, UniProt P20783 139-257, looked up) Neurotrophin-3: YAEHKSHRGEYSVCDSESLWVTDKSSAIDIRGHQVTVLGEIKTGNSPVKQYFYETRCKEARPVKNGCRGIDDKHWNSQCKTSQTYVRALTSENNKLVGWRWIRIDTSCVCALSRKIGRT | – | – | – | 24 | 13 and 13.3 | 7
